Assay results reported in article PMC4845099.

System: Cc1cc(=O)oc2cc(NC(=O)CNC(=O)CNC(=O)[C@H](CCCNC(=N)N)NC(=O)[C@H](CC(C)C)NC(=O)[C@H](CCCNC(=N)N)NC(=O)OCc3ccccc3)ccc12
Experiment: purified protein, by the assay type
Conditions: pH 7.5

Q: What does the source list for MERS-PLpro (Betacoronavirus England 1)?
A: Km: 142 µM; kcat/Km: 18000 M⁻¹ s⁻¹
